According to patent US5502166, “NMDH receptor proteins and genes encoding the same” (Mitsubishi Chemical Corporation, dated 1996):

Target: ζ1 NMDA type glutamate receptor subunit (mouse, wild type) (mouse, UniProt P35438)
Assay: cell-based or functional assay

inward current at a membrane potential of -70 mV, Xenopus oocytes, 10 µM L-glutamate and 10 µM glycine, frog standard Ringer's solution: 191 nA
B1: glutamate receptor ε3 subunit (mouse NMDA type glutamate receptor channel subunit) (receptor)
chain: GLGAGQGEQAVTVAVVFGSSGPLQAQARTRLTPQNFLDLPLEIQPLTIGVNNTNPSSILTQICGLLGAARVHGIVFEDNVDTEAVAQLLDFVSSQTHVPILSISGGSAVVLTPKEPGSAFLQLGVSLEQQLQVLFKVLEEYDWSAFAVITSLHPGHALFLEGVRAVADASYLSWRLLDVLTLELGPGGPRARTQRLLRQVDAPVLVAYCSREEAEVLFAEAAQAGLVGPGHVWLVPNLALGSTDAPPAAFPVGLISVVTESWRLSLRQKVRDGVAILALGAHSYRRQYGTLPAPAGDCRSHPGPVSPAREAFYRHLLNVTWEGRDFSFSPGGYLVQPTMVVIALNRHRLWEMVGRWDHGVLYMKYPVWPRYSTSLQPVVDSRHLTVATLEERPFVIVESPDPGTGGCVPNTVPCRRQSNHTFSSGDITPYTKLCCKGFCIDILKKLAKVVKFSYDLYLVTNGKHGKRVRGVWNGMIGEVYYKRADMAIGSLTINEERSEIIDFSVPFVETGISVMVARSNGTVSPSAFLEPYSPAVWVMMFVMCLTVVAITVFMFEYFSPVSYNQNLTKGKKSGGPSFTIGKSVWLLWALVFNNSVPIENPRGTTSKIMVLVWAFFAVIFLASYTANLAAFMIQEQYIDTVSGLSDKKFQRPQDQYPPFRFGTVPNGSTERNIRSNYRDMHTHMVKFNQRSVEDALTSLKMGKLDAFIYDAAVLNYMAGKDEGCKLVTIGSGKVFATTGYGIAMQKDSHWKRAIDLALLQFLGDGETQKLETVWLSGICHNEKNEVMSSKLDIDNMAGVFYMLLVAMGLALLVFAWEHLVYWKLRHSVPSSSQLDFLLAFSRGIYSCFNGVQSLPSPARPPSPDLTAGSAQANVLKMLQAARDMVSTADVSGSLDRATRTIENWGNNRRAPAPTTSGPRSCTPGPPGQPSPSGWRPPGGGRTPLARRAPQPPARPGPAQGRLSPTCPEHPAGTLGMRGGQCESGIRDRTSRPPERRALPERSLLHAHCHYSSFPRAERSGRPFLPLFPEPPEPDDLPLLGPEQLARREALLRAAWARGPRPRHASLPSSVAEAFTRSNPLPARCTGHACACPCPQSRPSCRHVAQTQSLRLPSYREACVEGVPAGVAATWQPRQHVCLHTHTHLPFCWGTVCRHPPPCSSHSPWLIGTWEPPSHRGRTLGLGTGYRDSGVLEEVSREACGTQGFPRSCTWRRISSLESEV
